# Measured values from paper PMC5153249.
# Where “and” joins values, the source holds several entries; their conditions need not be identical. Equal values may be shown once.
# What was measured:
# [1] = biological target: 43S pre-initiation complex (40S, eIF1, eIF1A, ternary complex; no mRNA) (S. cerevisiae) (UniProt P32911); test: native gel or EMSA; gel shift monitoring [35S]-Met-tRNAi; 43S PICs without mRNA (1 µM eIF1, 1 µM eIF1A, 200 nM eIF2, 1 mM GDPNP•Mg2+, 2 nM Met-tRNAi, 30 nM 40S); eIF3 titrated 30-500 nM; 1X Recon buffer (30 mM HEPES-KOH pH 7.4, 100 mM KOAc, 3 mM Mg(OAc)2, 2 mM DTT), 26 °C, 2 h; apparent KD, Hill equation; single experiments; apparent affinities ≤ 30 nM likely upper limits
# [2] = biological target: 48S pre-initiation complex (40S, eIF1, eIF1A, ternary complex, AUG-containing model mRNA) (S. cerevisiae) (UniProt P32911); test: native gel or EMSA; gel shift monitoring [35S]-Met-tRNAi; 48S PICs with 1 µM uncapped AUG-containing model mRNA (1 µM eIF1, 1 µM eIF1A, 200 nM eIF2, 1 mM GDPNP•Mg2+, 2 nM Met-tRNAi, 20 nM 40S); eIF3 titrated 30-500 nM; 1X Recon buffer, 26 °C, 2 h; apparent KD, Hill equation; single experiments; apparent affinities ≤ 30 nM likely upper limits
# [3] = biological target: 48S pre-initiation complex (40S, eIF1, eIF1A, ternary complex, AUG-containing model mRNA) (S. cerevisiae) (UniProt P32911); test: other; 48S PIC, + mRNA
# [4] = biological target: 43S pre-initiation complex (40S ribosomal subunit, eIF1, eIF1A and eIF2•GDPNP•Met-tRNAi ternary complex); called 48S PIC when AUG-containing model mRNA is added (yeast) (UniProt P32911); test: native gel or EMSA; eIF3 (30-500 nM) titrated into 48S PICs: 1 µM uncapped AUG-containing model mRNA, 20 nM 40S, 1 µM eIF1, 1 µM eIF1A, 200 nM eIF2, 1 mM GDPNP•Mg2+, 2 nM [35S]-Met-tRNAi; 26 °C, 2 h; apparent KD from a Hill fit
# [5] = biological target: 43S pre-initiation complex (40S ribosomal subunit, eIF1, eIF1A and eIF2•GDPNP•Met-tRNAi ternary complex); called 48S PIC when AUG-containing model mRNA is added (yeast) (UniProt P32911); test: other; 43S PIC, no mRNA
# [6] = biological target: 43S pre-initiation complex (40S ribosomal subunit, eIF1, eIF1A and eIF2•GDPNP•Met-tRNAi ternary complex); called 48S PIC when AUG-containing model mRNA is added (yeast) (UniProt P32911); test: native gel or EMSA; eIF3 (30-500 nM) titrated into 43S PICs without mRNA: 30 nM 40S, 1 µM eIF1, 1 µM eIF1A, 200 nM eIF2, 1 mM GDPNP•Mg2+, 2 nM [35S]-Met-tRNAi; 1X Recon buffer (30 mM HEPES-KOH pH 7.4, 100 mM KOAc pH 7.6, 3 mM Mg(OAc)2, 2 mM DTT); 26 °C, 2 h; apparent KD from a Hill fit, free eIF3 corrected for free …
# [7] = system: yeast 43S PIC: 40S+eIF1+eIF1A+eIF2 (Met-tRNAi TC); for mRNA recruitment also eIF5, eIF4A, eIF4B, eIF4E-eIF4G;eIF3 a/b/c sub-complex (Saccharomyces cerevisiae;Saccharomyces cerevisiae); test: EMSA; conditions: 30 mM HEPES-KOH pH 7.4, 100 mM KOAc, 3 mM Mg(OAc)2, 2 mM DTT, 1 mM GDPNP, 26 C, 2 h, native 4% THEM gel
# [8] = system: yeast 43S PIC: 40S+eIF1+eIF1A+eIF2 (Met-tRNAi TC); for mRNA recruitment also eIF5, eIF4A, eIF4B, eIF4E-eIF4G;eIF3 (b prt1-1) (Saccharomyces cerevisiae;Saccharomyces cerevisiae); test: EMSA; conditions: 30 mM HEPES-KOH pH 7.4, 100 mM KOAc, 3 mM Mg(OAc)2, 2 mM DTT, 1 mM GDPNP, 26 C, 2 h, native 4% THEM gel
# [9] = system: yeast 43S PIC: 40S+eIF1+eIF1A+eIF2 (Met-tRNAi TC); for mRNA recruitment also eIF5, eIF4A, eIF4B, eIF4E-eIF4G;eIF3 (b rnp1) (Saccharomyces cerevisiae;Saccharomyces cerevisiae); test: EMSA; conditions: 30 mM HEPES-KOH pH 7.4, 100 mM KOAc, 3 mM Mg(OAc)2, 2 mM DTT, 1 mM GDPNP, 26 C, 2 h, native 4% THEM gel
# [10] = system: yeast 43S PIC: 40S+eIF1+eIF1A+eIF2 (Met-tRNAi TC); for mRNA recruitment also eIF5, eIF4A, eIF4B, eIF4E-eIF4G (Saccharomyces cerevisiae); test: EMSA; conditions: no eIF3; measurement 1; m7G cap; 30 mM HEPES-KOH pH 7.4, 100 mM KOAc, 3 mM Mg(OAc)2, 2 mM DTT, 1 mM GDPNP, 26 C, 2 h; native 4% THEM gel
# [11] = system: yeast 43S PIC: 40S+eIF1+eIF1A+eIF2 (Met-tRNAi TC); for mRNA recruitment also eIF5, eIF4A, eIF4B, eIF4E-eIF4G;eIF3 (a R731I) (Saccharomyces cerevisiae;Saccharomyces cerevisiae); test: EMSA; conditions: measurement 1; m7G cap; 30 mM HEPES-KOH pH 7.4, 100 mM KOAc, 3 mM Mg(OAc)2, 2 mM DTT, 1 mM GDPNP, 26 C, 2 h; native 4% THEM gel
# [12] = system: yeast 43S PIC: 40S+eIF1+eIF1A+eIF2 (Met-tRNAi TC); for mRNA recruitment also eIF5, eIF4A, eIF4B, eIF4E-eIF4G;eIF3 (a delta8) (Saccharomyces cerevisiae;Saccharomyces cerevisiae); test: EMSA; conditions: measurement 1; m7G cap; 30 mM HEPES-KOH pH 7.4, 100 mM KOAc, 3 mM Mg(OAc)2, 2 mM DTT, 1 mM GDPNP, 26 C, 2 h; native 4% THEM gel
# [13] = system: yeast 43S PIC: 40S+eIF1+eIF1A+eIF2 (Met-tRNAi TC); for mRNA recruitment also eIF5, eIF4A, eIF4B, eIF4E-eIF4G;eIF3 (g KLF) (Saccharomyces cerevisiae;Saccharomyces cerevisiae); test: EMSA; conditions: measurement 1; m7G cap; 30 mM HEPES-KOH pH 7.4, 100 mM KOAc, 3 mM Mg(OAc)2, 2 mM DTT, 1 mM GDPNP, 26 C, 2 h; native 4% THEM gel
# [14] = system: yeast 43S PIC: 40S+eIF1+eIF1A+eIF2 (Met-tRNAi TC); for mRNA recruitment also eIF5, eIF4A, eIF4B, eIF4E-eIF4G;eIF3 (a H725P) (Saccharomyces cerevisiae;Saccharomyces cerevisiae); test: EMSA; conditions: measurement 1; m7G cap; 30 mM HEPES-KOH pH 7.4, 100 mM KOAc, 3 mM Mg(OAc)2, 2 mM DTT, 1 mM GDPNP, 26 C, 2 h; native 4% THEM gel
# [15] = system: yeast 43S PIC: 40S+eIF1+eIF1A+eIF2 (Met-tRNAi TC); for mRNA recruitment also eIF5, eIF4A, eIF4B, eIF4E-eIF4G;eIF3 (a Box6) (Saccharomyces cerevisiae;Saccharomyces cerevisiae); test: EMSA; conditions: measurement 1; m7G cap; 30 mM HEPES-KOH pH 7.4, 100 mM KOAc, 3 mM Mg(OAc)2, 2 mM DTT, 1 mM GDPNP, 26 C, 2 h; native 4% THEM gel
# [16] = system: yeast 43S PIC: 40S+eIF1+eIF1A+eIF2 (Met-tRNAi TC); for mRNA recruitment also eIF5, eIF4A, eIF4B, eIF4E-eIF4G;eIF3 (c Box12-SPW) (Saccharomyces cerevisiae;Saccharomyces cerevisiae); test: EMSA; conditions: measurement 1; m7G cap; 30 mM HEPES-KOH pH 7.4, 100 mM KOAc, 3 mM Mg(OAc)2, 2 mM DTT, 1 mM GDPNP, 26 C, 2 h; native 4% THEM gel
# [17] = system: yeast 43S PIC: 40S+eIF1+eIF1A+eIF2 (Met-tRNAi TC); for mRNA recruitment also eIF5, eIF4A, eIF4B, eIF4E-eIF4G;eIF3 (c delta60) (Saccharomyces cerevisiae;Saccharomyces cerevisiae); test: EMSA; conditions: measurement 1; m7G cap; 30 mM HEPES-KOH pH 7.4, 100 mM KOAc, 3 mM Mg(OAc)2, 2 mM DTT, 1 mM GDPNP, 26 C, 2 h; native 4% THEM gel
# [18] = system: yeast 43S PIC: 40S+eIF1+eIF1A+eIF2 (Met-tRNAi TC); for mRNA recruitment also eIF5, eIF4A, eIF4B, eIF4E-eIF4G;eIF3 WT (a/b/c/i/g) (Saccharomyces cerevisiae;Saccharomyces cerevisiae); test: EMSA; conditions: measurement 1; m7G cap; 30 mM HEPES-KOH pH 7.4, 100 mM KOAc, 3 mM Mg(OAc)2, 2 mM DTT, 1 mM GDPNP, 26 C, 2 h; native 4% THEM gel
# [19] = system: yeast 43S PIC: 40S+eIF1+eIF1A+eIF2 (Met-tRNAi TC); for mRNA recruitment also eIF5, eIF4A, eIF4B, eIF4E-eIF4G;eIF3 (i Q258R) (Saccharomyces cerevisiae;Saccharomyces cerevisiae); test: EMSA; conditions: measurement 1; m7G cap; 30 mM HEPES-KOH pH 7.4, 100 mM KOAc, 3 mM Mg(OAc)2, 2 mM DTT, 1 mM GDPNP, 26 C, 2 h; native 4% THEM gel
# [20] = system: yeast 43S PIC: 40S+eIF1+eIF1A+eIF2 (Met-tRNAi TC); for mRNA recruitment also eIF5, eIF4A, eIF4B, eIF4E-eIF4G;eIF3 (a Box37) (Saccharomyces cerevisiae;Saccharomyces cerevisiae); test: EMSA; conditions: measurement 1; m7G cap; 30 mM HEPES-KOH pH 7.4, 100 mM KOAc, 3 mM Mg(OAc)2, 2 mM DTT, 1 mM GDPNP, 26 C, 2 h; native 4% THEM gel
# [21] = system: yeast 43S PIC: 40S+eIF1+eIF1A+eIF2 (Met-tRNAi TC); for mRNA recruitment also eIF5, eIF4A, eIF4B, eIF4E-eIF4G;eIF3 (c GAP85) (Saccharomyces cerevisiae;Saccharomyces cerevisiae); test: EMSA; conditions: measurement 1; m7G cap; 30 mM HEPES-KOH pH 7.4, 100 mM KOAc, 3 mM Mg(OAc)2, 2 mM DTT, 1 mM GDPNP, 26 C, 2 h; native 4% THEM gel
# [22] = no mRNA, ~3 fold weaker than WT, mean of 2, column assigned from text, Met-charged
substance,measurement,setting,value
eIF3 variant R731I (eIF3a/Tif32 CTD) (from UniProt P38249 1-964; P06103 1-763; P32497 1-812; P40217 1-347; Q04067 1-274) (complex),Kd,[1],126 nM
eIF3 variant ∆60 (eIF3c/Nip1 CTD) (from UniProt P38249 1-964; P06103 1-763; P32497 1-752; P40217 1-347; Q04067 1-274) (complex),Kd,[2],41 nM and 52 nM
same,Kd,[1],27 nM and 21 nM
eIF3a/b/c sub-complex lacking the i and g subunits (eIF3 purified from eIF3i DDKK cells) (from UniProt P38249 1-964; P06103 1-763; P32497 1-812),Kd,[3],109 nM
same,fold decrease of apparent affinity against WT eIF3,[4],3 fold
same,Kd,[5],90 nM
same,fold decrease of apparent affinity against WT eIF3,[6],2 fold
eIF3a/b/c sub-complex lacking the i and g subunits (from UniProt P38249 1-964; P06103 1-763; P32497 1-812),Kd,[2],106 nM and 111 nM
same,Kd,[1],87 nM and 98 nM
initiator tRNAiMet,Kd,[7]; [22],47.8 nM
same,Kd,[8]; [22],42.3 nM
same,Kd,"[9]; no mRNA, ~2 fold weaker than WT, mean of 2, column assigned from text, Met-charged",28.1 nM
mid-AUG model mRNA,binding signal,"[7]; measurement 1, m7G cap",81.6 % recruited
same,binding signal,[10],88.2 % recruited
same,binding signal,[11],93.8 % recruited
same,binding signal,[12],95.9 % recruited
same,binding signal,[13],98.3 % recruited
same,binding signal,[14],93.3 % recruited
same,binding signal,[15],97.1 % recruited
same,binding signal,"[8]; measurement 1, m7G cap",94.6 % recruited
same,binding signal,"[9]; measurement 1, m7G cap",77.8 % recruited
same,binding signal,[16],96.1 % recruited
same,binding signal,[17],96.9 % recruited
same,binding signal,[18],98.5 % recruited
same,binding signal,[19],97.7 % recruited
same,binding signal,[20],96.8 % recruited
same,binding signal,[21],97.7 % recruited
